Measurements published in the supplement of paper PMC11246515.
± gives the standard deviation of the averaged measurements.

Assay: total protein half-life in vivo (active degradation + dilution); higher = more stable protein
[1] = E. coli NCM3722 delta-clpP delta-lon delta-hslV, growth: N-lim chemostat, doubling time 6 h
[2] = E. coli NCM3722 delta-clpP, growth: N-lim chemostat, doubling time 6 h
[3] = E. coli NCM3722 delta-hslV, growth: N-lim chemostat, doubling time 6 h
[4] = E. coli NCM3722 delta-lon, growth: N-lim chemostat, doubling time 6 h
[5] = E. coli NCM3722 delta-smpB, growth: N-lim chemostat, doubling time 6 h
[6] = wild type E. coli NCM3722, growth: C-lim chemostat, doubling time 3 h
[7] = wild type E. coli NCM3722, growth: C-lim chemostat, doubling time 6 h
[8] = wild type E. coli NCM3722, growth: N-lim chemostat, doubling time 6 h
[9] = wild type E. coli NCM3722, growth: N-lim chemostat, doubling time 12 h
[10] = wild type E. coli NCM3722, growth: P-lim chemostat, doubling time 6 h
[11] = wild type E. coli NCM3722, growth: P-lim chemostat, doubling time 12 h
[12] = wild type E. coli NCM3722, growth: C-lim chemostat, doubling time 12 h

MSGDILQTPDAPKPQGALDNYFKITARGSTVRQEVLAGLTTFLAMVYSVIVVPGMLGKAGFPPAAVFVATCLVAGFGSLLMGLWANLPMAIGCAISLTAFTAFSLVLGQQISVPVALGAVFLMGVIFTAISVTGVRTWILRNLPMGIAHGTGIGIGLFLLLIAANGVGMVIKNPIEGLPVALGAFTSFPVMMSLLGLAVIFGLEKCRVPGGILLVIIAISIIGLIFDPAVKYHGLVAMPSLTGEDGKSLIFSLDIMGALQPTVLPSVLALVMTAVFDATGTIRAVAGQANLLDKDNQIINGGKALTSDSVSSIFSGLVGAAPAAVYIESAAGTAAGGKTGLTATVVGALFLLILFLSPLSFLIPGYATAPALMYVGLLMLSNVSKLDFNDFIDAMAGLVCAVFIVLTCNIVTGIMLGFVTLVVGRVFAREWQKLNIGTVIITAALVAFYAGGWAI
total protein half-life in vivo [1]: 4.51 ± 0.38 h | total protein half-life in vivo [2]: 5.04 ± 0.2 h | total protein half-life in vivo [3]: 5.05 h | total protein half-life in vivo [4]: 4.88 h | total protein half-life in vivo [5]: 4.98 ± 0.49 h | total protein half-life in vivo [6]: 3.28 ± 0.56 h | total protein half-life in vivo [7]: 4.99 ± 0.19 h | total protein half-life in vivo [8]: 4.98 h | total protein half-life in vivo [9]: 9.21 ± 0.52 h | total protein half-life in vivo [10]: > 8 h | total protein half-life in vivo [11]: 9.89 ± 0.52 h

MSAGRLNKKSLGIVMLLSVGLLLAGCSGSKSSDTGTYSGSVYTVKRGDTLYRISRTTGTSVKELARLNGISPPYTIEVGQKLKLGGAKSSSITRKSTAKSTTKTASVTPSSAVPKSSWPPVGQRCWLWPTTGKVIMPYSTADGGNKGIDISAPRGTPIYAAGAGKVVYVGNQLRGYGNLIMIKHSEDYITAYAHNDTMLVNNGQSVKAGQKIATMGSTDAASVRLHFQIRYRATAIDPLRYLPPQGSKPKC
total protein half-life in vivo [2]: 6.06 ± 0.3 h | total protein half-life in vivo [3]: 6.34 ± 0.85 h | total protein half-life in vivo [4]: 6.04 ± 0.44 h | total protein half-life in vivo [5]: 5.693 ± 0.011 h | total protein half-life in vivo [6]: 3.22 ± 0.21 h | total protein half-life in vivo [7]: 5.4794 ± 0.0017 h | total protein half-life in vivo [12]: 9.64 ± 0.25 h | total protein half-life in vivo [8]: 5.64 ± 0.52 h | total protein half-life in vivo [9]: 10.8 ± 0.38 h | total protein half-life in vivo [10]: 6.32 ± 0.37 h | total protein half-life in vivo [11]: 13.3 ± 0.95 h

MKIAFIGEAVSGFGGMETVIRDVITTFRQQHIQSEMFFFCRNDKMDKGWLEGIKYSCSFSNIRLGFLRRAKHIHALSKWLQEYQPDIVICIDVISCLFAAKARKKSGIDMPVFSWPHFSLDHKKHAEYITCADYHLAISSGIKQQMINRGVAESTINVIFNPVETKDSVIPAPEEGETATFIYVGRMKFEGQKRVKDLLDGLSQAKGNWKLHVLGDGSDFEKCQAYGRELNIDDRIVWYGWQQYPWELVQQDIEKVSALLLTSSFEGFPMTLLEALSWGIPCISADCVSGPADIIQPDVNGHLYQPGDIAGFVTLLNKYIAGEIHIEHEKIPASIDEFYQSKYYDRLHKVIISAISRRK
total protein half-life in vivo [1]: 5.73 ± 0.45 h | total protein half-life in vivo [4]: 6.05 ± 0.67 h | total protein half-life in vivo [5]: 5.9 ± 0.06 h | total protein half-life in vivo [6]: 2.96 ± 0.11 h | total protein half-life in vivo [12]: 10.9 ± 0.65 h | total protein half-life in vivo [8]: 6.03 ± 1.8 h | total protein half-life in vivo [9]: 12.1 ± 1.4 h | total protein half-life in vivo [10]: 6.21 ± 0.58 h | total protein half-life in vivo [11]: 11.8 ± 0.7 h

MSVPVQHPMYIDGQFVTWRGDAWIDVVNPATEAVISRIPDGQAEDARKAIDAAERAQPEWEALPAIERASWLRKISAGIRERASEISALIVEEGGKIQQLAEVEVAFTADYIDYMAEWARRYEGEIIQSDRPGENILLFKRALGVTTGILPWNFPFFLIARKMAPALLTGNTIVIKPSEFTPNNAIAFAKIVDEIGLPRGVFNLVLGRGETVGQELAGNPKVAMVSMTGSVSAGEKIMATAAKNITKVCLELGGKAPAIVMDDADLELAVKAIVDSRVINSGQVCNCAERVYVQKGIYDQFVNRLGEAMQAVQFGNPAERNDIAMGPLINAAALERVEQKVARAVEEGARVAFGGKAVEGKGYYYPPTLLLDVRQEMSIMHEETFGPVLPVVAFDTLEDAISMANDSDYGLTSSIYTQNLNVAMKAIKGLKFGETYINRENFEAMQGFHAGWRKSGIGGADGKHGLHEYLQTQVVYLQS
total protein half-life in vivo [1]: 4.75 ± 0.26 h | total protein half-life in vivo [2]: 4.93 ± 1 h | total protein half-life in vivo [3]: 3.81 ± 0.14 h | total protein half-life in vivo [4]: 4.56 ± 0.062 h | total protein half-life in vivo [5]: 4.55 ± 0.52 h | total protein half-life in vivo [6]: 3.19 ± 0.26 h | total protein half-life in vivo [7]: 5.86 ± 0.33 h | total protein half-life in vivo [12]: 10.24 ± 0.092 h | total protein half-life in vivo [8]: 4.82 ± 1.6 h | total protein half-life in vivo [9]: 5.01 ± 1.9 h | total protein half-life in vivo [10]: 5.871 ± 0.049 h | total protein half-life in vivo [11]: 11.3 ± 0.13 h
